In a protein production outcome set (Wang et al. 2014):

Assay: label from the status in PepcDB records
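Further: failed if final PepcDB status was selected cloned or expressed and not failed if soluble or beyond.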

Sequence	protein production
MTIYSPDTINFNGVSGDRYWFDEPFPYTGVADIDERLSGFPVAVFLPHHRPRQETPLVIGLQGMCAPYGWNAFIVPILIEMGIAVALFDPPLSGERSLVRTSTTLVQNEIKPLIDRGIPFDTALFLSIFRTTARDIGKIREFCGDRYGLTDSRLALFGVSMGVLLSAYAFTANSLGDRLLGTIGHADLPSFAKSWGRPFLPDLAASPLGGLAESLLQRLQPDLAPLFNLLRLTKNLKYQDEYAWDCNPMNYIQQVESHRRVRFLIGANDSIVKIKDARACAQKFPDGDCYIVPGMGHGTRQSGVSFVDHVRYFLATQLGDWRG	failed
MASEFDLIQRYFRRAHPSAVLGVGDDAALIQPSPGMELAVSADMLVANTHFYPNIDPWLIGWKSLAVNISDMAAMGAQPRWATLTIALPEADEDWISKFAAGFFACAAQFDIALIGGDTTRGPLTISVQIMGETPPGASLLRSTARADDDIWVSGPLGDAALALAAIQGRYPLSDTELAACGKALHQPQPRVVLGQALRGLAHSALDISDGLLADLGHILEHSQVGAEVWLKAIPKSEVVSAHSQEVAIQKMILSGGDDYELCFTASTQHRQQIADIGRQLSLDMAVIGRITDTQQLVIHGLDDAPLTLKEHGFDHFA	not failed
MKITRQIFIYFSFLMAVALFFSCKTTEKAVKSPVTEETKKAEKTGKKSPREEFNDKLTHLSKKGDLEGILKLIDESDPELTKDFKIQYLKLSILISMRKTKEAETFADELSKAYPNNTEILYAQVMLAQAENNTQKKNQYLKKILAINPKDSRALTEQGLDFYSAKKYNDARRKFIEAYKADPKCTEALIGLGRINYLEGKLDQAEANLTAVLEQEPNNSTALAELARIKSETNRMYQALQDINRAAELEPNNPSHWNDIGSYNLTIGRKEEAKKAYDKVIELTPDSYVAYIYRAGINDELGYKEDALADYIKVCNLYPPYYFALEGAGILLWEKGDWLNAGTAFLKALNKAPGSYQYALLYAISLYKQNKKPDAKKFMQNYLKSINRTEKENEYFLCRLFIDFAGDSELINRATAETDMVKKGRLFFYLGEFYNLTKKYTLAEKCYVQVMSIENPAFFEYRFAKKAMDEFNSSNGK	failed
MTGTPQRSHPQPERTFVTIDFAALPDDFLWGTATSAYQIEGAVAEDGRSPSIWDTFSHTPGKIDNGDHGDVACDHYHRTHEDIELMRRLGTNAYRLSVAWPRVVPGGDGPVNAKGLAFYDRLVDDLLAAGITPSVTLYHWDLPQVLQDRGGWPERDTAEHFAAYAAVVAERLGDRVAHWATLNEPLCSAWIGHLEGKMAPGQTDLTAAVRASYHLLLGHGLAMQAIRAAAPDAQVGIVNNLSTIHAATDREEDLAAARRMDGHTNRWWLDPVHGRGFPQDMREVYGVELPERPGDMRLIGAELDWLGLNYYFPQTVAADPTGPAPQVRTVRRAGVPRTGMDWEIDAGGIEELLLRLTEEYGPRKLYVTENGSSFPDLVRPDGSVDDPERQEYLTAHLAACASAARKGAPLAGYFAWSLLDNFEWAYGYDKRFGLVHVDYATQVRTIKGSGHHYADIIGRARGRERKAA	failed
MEYTVHTPSFRYHDLPYQDCLNKVGTVTLQDYRDDLVALIESLNQPPLLLGHSLGFLVAQMAAKKIEIDGMIFM	failed
MLPLNDYLQPFGLVIKPMQEDLTPYLGIKVKSEAGQEKITFVAAHSPAAMAGISPQDLLLAINGVRVGAEQLSLRLKDYQANDMIQLTVFHQDLLRTVDVVLASPQANRYEVVPIADPSDSQLEHHHHHH	not failed
MTTEIKKLDPDTAIDIAYDIFLEMAGENLDPADILLFNLQFEERGGVEFVETADDWEEEIGVLIDPEEYAEVWVGLVNEQDEMDDVFAKFLISHREEDREFHVIWKK	not failed
MEKILDNIDKSMNIIISLFTIYNLIRGFWLNKNKKQLEKQREDLQKKLHQQNISNNNNISNSFNTTIHNETNIKNEIIDINQDLKNTLKSRNTSRNIAYIFTIFLFVLSFILYVIHYFKEQFKGYTIADFINSFIPSFEKLTDILTISYKSAIIVLLIINLIIAVLVILISMLKLKLKWRVAVSSLLYGILNYYVLISASSIDSKDIHYSIQEPKLSFIISFLYLMVGFITAFFSNYILYSYLFNSEFEDELFNQTIKRFFIWLALTVLFAFLSFINYHNGLQITLNFIKNLLNLI	failed
MEPCELSANTVIAHPRALTDKMTLIRDAGPSKFQVFPTPISEQGDAYYDAKRQALYDHYHPLEISPVIPIDEKTKLMEEWWGKTHELLIEGGLTYDAIKKSVANSSIAFREGVSELFEFLEKKEIPVLIFSAGLADVIEEVTLKSISLLELLSYFCCLYNEYAFVAYSHSYQVLRQNLDRTFKNVKIVSNRMVFNDDGQLVSFKGKLIHVLNKNEHALDMAAPLHDRLGVDIGEEDEENVNMKERRNVLLMGDHLGDLRMSDGLDYETRISIGFL	failed
MTENEFLSQEEIDKLLSDSDTGGVLTPEEKDMIGEIGNIAMGSAATTLSMILGRDIHITVPTVREEKMKNVKSDFSGEQVVVSVEYTEGLEGLNVLVLDKKLVAVIADLMMGGSGEVETEELDEIKLSAVGEAMNQMMGSAATSLSELLGITINISPPKVEI	not failed
MKHIIILGDGMADWPAESLGNKTLLQYSSTPYMDKLAAMGRTGRLVTVAPGFHPGSEVANMSVMGYNLPKVYEGRGPLEAASIGVELQPGDMAMRCNIICIEDEKIKNHSAGHITTEEADVLVRYLEEKLGSDRIHFYTGVQYRHLLVIKGGNKQLDCTPPHDVPLQPFRPLMVKAEVPEAQETAGLINNLILASQELLADHPVNQKRIAEGKDPANSIWPWSPGYRPQMEPLSGKYPAIKKGAVISAVDLINGIGHYAGLRRIAVEGATGLYNTNYENKVAAALEALKTDDFVYLHIEASDEAGHEGDFKLKQFTIENLDKRVVGPVYEAVKDWDEPVAIAVLPDHPTPCELRTHTAEPVPFLIYYPGIEPDCVQTFDEVACVEGSYGILKEDEFMNEFMKK	failed
MYSALLNADIRIYGYLRASTDEQDASRAKNELMLFAEQMGFQVACWFEENESGAQLKRPELFRLLDIAISGDVILVEQVDRISRLNTQDWEKLKLMINKKGLKVVSLDLPTSYQFMSNTDDFTERMLSALNGMMLDMLAAVARKDYEDRRRRQAQGVQRAKLEGKYKGRPINTKLHNKIEGLLRENKSYSQIENLLGCSRHTISKVSKLIKSSIG	failed
MAYFYLAEAGDWSFRTVWHDRFFTVLKHHPARTEKVEQADYIFLDADFALETNWPYYGSQRKAILKGDRFPTDEEILAFLFDHPVSGYGKPLVLINMNPLAQWPAIAQVLPDVVVVSHCHTLGNYRVGIDVSFPPMPLLDQHCYPSRDRSTLLSFRGANSHPVREQLQRLHQPPEIAAELIQQSYWGTLNYVDEAEGLSAEQQVYTDLIARSRFSVAPRGHDIFSYRLLEVMAGGAIPVILADDWVLPFSELLDWSEFSLSVAEDRCWELPQLLQAISTDQWQVMQQHLQQVYQHYFYSLARQVQTLWQILDQRSLHPSASEVEIEAVLLSQAERYRLKGDLEAAATYLATLPRSPARILEQARLALTQQQPKAALALLDSMVMPEAEQGEHYNLLGVAQTQLGEWDTAIAIYRQGLQAQPHHPKLRTNLCVALRQQEQWEEALALSQALLEEVPAAIDRLLLQADTLNLAGRYDQALSLYQQVVAREPERANAQLAIAEILLRQGKAEGWDIYEARFAAEPSLAALAAHYPQPRWQGVELGQRSLLVWGEQGYGDQIQFSRYLWVLRDRYPQARIQFQTDAVLVPLFAEPLASLGIKVIPAQITEELFDFQVPLLSLPRLVWPSLKDIPYREGWLPCPLPPPREDQNHKFRVGIVWLAGQRAGIQKSATADRRSCSLEAMLELVRESMQRSDLEVVSLQLGYEGRLPEGIQDWSNRLVDFSATARVLMELDLLVTVDTAIVHLAGAMGTPAKVLLAYPPDWRWQQNLELTWYSSIELCYFAHLLSSF	failed
QYDPYKNPESAQTRRNTVLQQMYQDKNISKKEYDQAVATPVTDGLKELKQKSTYPKYMDNYLKQVISEVKQKTGKDIFTAGL	failed
MSLTIGVIGKSVHPYWSQVEQGVKAAGKALGVDTKFFVPQKEDINAQLQMLESFIAEGVNGIAIAPSDPTAVIPTIKKALEMGIPVVTLDTDSPDSGRYVYIGTDNYQAGYTAGLIMKELLGGKGKVVIGTGSLTAMNSLQRIQGFKDAIKDSEIEIVDILNDEEDGARAVSLAEAALNAHPDLDAFFGVYAYNGPAQALVVKNAGKVGKVKIVCFDTTPDILQYVKEGVIQATMGQRPYMMGYLSVTVLYLMNKIGVQNTLMMLPKVKVDGKVDYVIDTGVDVVTPENLDEYLKKMEELGIPIKEGHHHHHH	not failed
LVRQEETLRLAIDAADVGTWDHDLETGEVRLSDRCYAMFGVTPGEPVTHETLMPFTHPADVVRVQEAVARALDPAIRADYAIEFRVNGRDDHVERWLSAKGEVSFDNEGRPRRFLGAVVNITERKRAELHLRLLVNELNHRVKNSLATIQAIAAQSFNGQRDMDEAKEAFSNRIVALAEAHDLLTRENWEGAEMHDVAARVAALHGGDARFELSGVAIRLSPKTALSLSMALHELATNAVKYGALSVPEGVVRIVWDMAPEP	failed
MKATLAAPSSLTSLPYRTNSSFGSKSSLLFRSPSSSSSVSMTTTRGNVAVAAAATSTEALRKGIAEFYNETSGLWEEIWGDHMHHGFYDPDSSVQLSDSGHKEAQIRMIEESLRFAGVTDEEEEKKIKKVVDVGCGIGGSSRYLASKFGAECIGITLSPVQAKRANDLAAAQSLAHKASFQVADALDQPFEDGKFDLVWSMESGEHMPDKAKFVKELVRVAAPGGRIIIVTWCHRNLSAGEEALQPWEQNILDKICKTFYLPAWCSTDDYVNLLQSHSLQDIKCADWSENVAPFWPAVIRTALTWKGLVSLLRSGMKSIKGALTMPLMIEGYKKGVIKFGIITCQKPL	failed
MNGSLQTADRTPVDYVNPYIGNISHLLVPTFPTIQLPNSMLRVYPERADYTSELLKGLPLIVTNHRERSAFNFSPYQGEKLRPVITYNYDNEHITPYSFDVELDDNRMKAEYALSHQSAIYRITYEADKPAYLIVNSRNGSIHANENFISGRQQLNDNTNVYVYIEAQEKPLEHHHHHH	not failed
MRILIASQPIAGHVLPLREIARELARRGHELRWYTGRKFRPQVEAAGAVWEGFVHARDYDDANFDAAFPGRSARRGLAQLLFDLRHVFVGQMEGQFYDLRDLERRWRPDVVLADQTVGAALLREELGGPPVALLGVLPLGIASRDTAPFGLGLAPLGGAAGQLRNRALQVLTERVVFRGISAQLADLCTWLGLPARSFAPPVAPSLMLQPSVPRLEYLRRDLPPQVRFIGPLVLPAGEFTPPAWWNDILTAERPVVLVTQGTLATRPEQLLRPALAALADEDVLVVAAGVAPERLGPLPANARAAAFVPFTALLPHVAVSLTNGGYGGTVQALSHGVPCVVAGRSEDKAEVAARVAYSGAGLNLGTATPSPARIRAAVRRVLREPAFREQAGELGHELRQHDAPREAADWLETLGGKKLEHHHHHH	failed
MERQVLLSEPEEAAALYRGLSRQPALSAACLGPEVTTQYGGQYRTVHTEWTQRDLERMENIRFCRQYLVFHDGDSVVFAGPAGNSVETRGELLSRESPSGTMKAVLRKAGGTGPGEEKQFLEVWEKNRKLKSFNLSALEKHGPVYEDDCFGCLSWSHSETHLLYVAEKKRPKAESFFQTKALDVSASDDEIARLKKPDQAIKGDQFVFYEDWGENMVSKSIPVLCVLDVESGNISVLEGVPENVSPGQAFWAPGDAGVVFVGWWHEPFRLGIRFCTNRRSALYYVDLIGGKCELLSDDSLAVSSPRLSPDQCRIVYLQYPSLIPHHQCSQLCLYDWYTKVTSVVVDVVPRQLGENFSGIYCSLLPLGCWSADSQRVVFDSAQRSRQDLFAVDTQVGTVTSLTAGGSGGSWKLLTIDQDLMVAQFSTPSLPPTLKVGFLPSAGKEQSVLWVSLEEAEPIPDIHWGIRVLQPPPEQENVQYAGLDFEAILLQPGSPPDKTQVPMVVMPHGGPHSSFVTAWMLFPAMLCKMGFAVLLVNYRGSTGFGQDSILSLPGNVGHQDVKDVQFAVEQVLQEEHFDASHVALMGGSHGGFISCHLIGQYPETYRACVARNPVINIASMLGSTDIPDWCVVEAGFPFSSDCLPDLSVWAEMLDKSPIRYIPQVKTPLLLMLGQEDRRVPFKQGMEYYRALKTRNVPVRLLLYPKSTHALSEVEVESDSFMNAVLWLRTHLGS	failed
